This note sets out measurements from patent US9993566B2, “SEZ6 modulators and methods of use” (AbbVie Stemcentrx LLC, priority 2013, dated 2018).

First the molecules themselves.
B1: SC17.156: murine anti-SEZ6 antibody (antibody, V domains shown)
VH: QVTLKESGPGILQPSQTLSLTCSFSGFSLSTSGMGVSWIRKTSGKGLEWLAHIFWDDDKWYNPSLKSRLTISKATSSNQVFLILTSVDTADTATYYCATFYGLYFAYWGQGTTLTVSS
VL: DVVMTQSPLSLPVSLGDQASISCRSSQSIVHSNGNTYLEWYLQKPGQSPKLLIYKVSNRFSGVPDRFSGSGSGTDFTLKISRVEAEDLGVYYCFQGSHVPPTFGGGTKLEIK
modifications: Murine SC17.156 VH; Murine SC17.156 VL
notes: murine anti-SEZ6 antibody
B2: SC17.102: murine anti-SEZ6 antibody (antibody, V domains shown)
VH: EVQLQQSGPELMKPGASVKMSCKASGDTFTDYNIHWVKQNQGKSLEWIGEVNPNIGGIGYNQKFKGKATLTVDKSSSTAYMELRSLTSEDSAVYYCAMGRWYFDVWGAGTTVTVSS
VL: QIVLTQSPAIMSASPGEKVTMTCSASSSVSYMHWYQQKSGTSPKRWIYDTSKLASGVPPRFSGRGSGTSYSLTISSMEAEDAATYYCQHWSSNPPTFGAGTKLEMK
modifications: Murine SC17.102 VH; Murine SC17.102 VL
notes: murine anti-SEZ6 antibody
B3: SC17.191: murine anti-SEZ6 antibody (antibody, V domains shown)
VH: EVQLQQSGPELMKPGASVKMSCKASGYTFTDYNMHWVKQNQGKSLEWIGEINPNTGGTGYNQKFKDKATLTVDKSSSTAYMELRSLTSEDSAVYYCARIPSLRRYYFDYWGQGTTLTVSS
VL: QIVLTQSPAIMSASPGEKVTMTCSASSSVSYMHWYQQKSGTSPKRWIYDTSKLASGVPARFTGSGSGTSYSLTISSMEAEDAATYYCQQWSSSPPTFGAGTKLELK
modifications: Murine SC17.191 VH; Murine SC17.191 VL
notes: murine anti-SEZ6 antibody
B4: SC17.121: murine anti-SEZ6 antibody (antibody, V domains shown)
VH: EVQLQQSGPELMKPGASVKMSCKASGYTFTDHNIHWVKQHQGKSLEWIGEINPNTGGTGYNQKFQGKATMTVDKSSSTAYMELRSLTSEDSAVYYCVRGLYFFDYWGQGTTLTVSS
VL: QIVLTQSPAIMSASPGEKVTMTCSASSSVSYMHWYQQKSGTSPKRWIYDTSKLASGVPARFSGSGSGTSYSLTISSMETEDAATYYCQQWSNTPPTFGSVTKLEIK
modifications: Murine SC17.121 VH; Murine SC17.121 VL
notes: murine anti-SEZ6 antibody
B5: SC17.166: murine anti-SEZ6 antibody (antibody, V domains shown)
VH: EVQLQQSGPELMKPGASVKMSCKASGYIFTDYNMHWVKQNQGKSLEWIGEVNPNTGGIGYNQKFKGKATLTVDKSSSTAYMDLRSLTSEDSAVYYCARDGNYCFDYWGQGTTLTVSS
VL: QIVLTQSPAIMSASPGEKVTMTCSASSSISYMHWYQQKSGTSPKRWIYDTSKLASGVPARFSGSGSGTSYSLTISNMEAEDAATYYCQQWSSTPPTFGGGTKLEIK
modifications: Murine SC17.166 VH; Murine SC17.166 VL
notes: murine anti-SEZ6 antibody
B6: SC17.4: murine anti-SEZ6 antibody (antibody, V domains shown)
VH: QIQLVQSGPELKKPGETVKISCKASGYTFTDYSMHWVKQAPGKGLKWLGWINTETGEPTYSEDFKGRFAFSLETSASTAYLQINNLKNEDTATYFCVKNKGWFAYWGQGTLVTVSA
VL: DIKMTQSPSSMYASLGERVTITCKASQDINSYLTWFQQKPGKSPKTLIYRANRLIDGVPSRFSGSGSGQDYSLTISSLDYEDMGIYYCLQYDDFPWTFGGGTKLEIK
modifications: Murine SC17.4 VH; Murine SC17.4 VL
notes: murine anti-SEZ6 antibody

This test deals with T1, SEZ6 ECD (Homo sapiens, UniProt Q53EL9).
T1 construct: SEZ6 extracellular domain (amino acids 1-904); expressed in transfected cells; host or cells: yeast (surface display, Cochran et al. protocol)
T1 sequence (Q53EL9 20-923): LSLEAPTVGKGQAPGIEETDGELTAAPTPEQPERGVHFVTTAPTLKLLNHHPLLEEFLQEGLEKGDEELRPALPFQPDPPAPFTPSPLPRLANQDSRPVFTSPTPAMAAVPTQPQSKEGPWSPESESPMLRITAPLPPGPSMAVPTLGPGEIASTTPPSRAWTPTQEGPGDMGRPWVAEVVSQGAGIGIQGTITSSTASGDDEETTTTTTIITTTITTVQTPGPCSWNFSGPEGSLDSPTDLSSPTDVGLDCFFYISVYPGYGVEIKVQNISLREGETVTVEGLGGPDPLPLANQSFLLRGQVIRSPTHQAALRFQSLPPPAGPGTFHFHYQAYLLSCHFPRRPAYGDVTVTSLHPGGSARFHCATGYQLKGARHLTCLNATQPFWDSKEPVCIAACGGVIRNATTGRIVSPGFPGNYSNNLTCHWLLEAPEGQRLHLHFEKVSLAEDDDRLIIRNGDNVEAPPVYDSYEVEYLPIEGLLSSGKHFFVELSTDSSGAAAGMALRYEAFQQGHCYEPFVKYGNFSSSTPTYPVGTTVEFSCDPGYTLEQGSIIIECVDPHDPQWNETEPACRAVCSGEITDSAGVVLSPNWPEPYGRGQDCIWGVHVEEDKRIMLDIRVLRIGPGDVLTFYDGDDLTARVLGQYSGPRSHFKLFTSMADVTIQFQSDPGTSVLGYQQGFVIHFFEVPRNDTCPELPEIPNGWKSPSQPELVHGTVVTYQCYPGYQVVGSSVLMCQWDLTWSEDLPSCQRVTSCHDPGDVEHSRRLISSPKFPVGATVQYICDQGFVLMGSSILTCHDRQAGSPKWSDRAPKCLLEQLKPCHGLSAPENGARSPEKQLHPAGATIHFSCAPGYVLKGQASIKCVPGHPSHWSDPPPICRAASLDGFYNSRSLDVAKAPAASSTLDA
Description: Fine epitope mapping (phage display peptide library or yeast-displayed SEZ6 ECD mutants). Format: binding. Conditions: epitope conformational (discontinuous) or linear. Here is the method: Epitopes were classified either as conformational (i.e. discontinuous) or linear. Yeast displaying the SEZ6 ECD construct was heat treated for 30 minutes at 80° C. in order to denature the antigen, washed twice in ice-cold PBSA and then subjected to the same staining protocol and flow cytometry analysis as described above. Antibodies that bound to both the denatured and native yeast were classified as binding to a linear epitope, whereas antibodies that bound native yeast but not denatured yeast were classified as conformationally specific.
Fine epitope mapping was further performed on selected antibodies to determine the specific amino acids to which they bound. Antibodies that bound to a linear epitope were mapped using the Ph.D.-12 phage display peptide library kit (New England Biolabs E8110S). The antibody selected for epitope mapping was coated onto a Nunc MaxiSorp tube (Nunc) at 50 μg/mL in 3 mL 0.1 M sodium bicarbonate solution, pH 8 and incubated overnight. The tube was blocked with 3% BSA solution in bicarbonate solution. Then, 10^11 input phage in PBS+0.1% Tween-20 was allowed to bind, followed by ten consecutive washes with 0.1% Tween-20 to wash away non-binding phage. Remaining phage were eluted with 1 mL 0.2 M glycine for 10 minutes at room temperature with gentle agitation, followed by neutralization with 150 μL 1 M Tris-HCl pH 9. Eluted phage were amplified and panned again with 10^11 input phage, using 0.5% Tween-20 during the wash steps to increase selection stringency. DNA from 24 plaques of the eluted phage from the second round was isolated using the Qiaprep M13 Spin kit (Qiagen) and sequenced. Binding of clonal phage was confirmed using an ELISA assay, where the mapped antibody or a control antibody was coated onto an ELISA plate, blocked, and exposed to each clone phage. Phage binding was detected using horseradish peroxidase conjugated anti-M13 antibody (GE Healthcare), and the 1-Step Turbo TMB ELISA solution (Pierce). Phage peptide sequences from specifically binding phage were aligned using Vector NTI (Life Technologies) against the antigen ECD peptide sequence to determine the epitope of binding.
Selected antibodies that bound to a discontinuous epitope were mapped using the technique described by Chao et al. (2007). Libraries of SEZ6 ECD mutants were generated with error prone PCR using nucleotide analogues 8-oxo-2′deoxyguanosine-5′-triphosphate and 2′-deoxy-p-nucleoside-5′triphosphate (both from TriLink Bio) for a target mutagenesis rate of one amino acid mutation per clone. These were transformed into a yeast display format. Using the technique described above for domain-level mapping, the library was stained for c-myc and antibody binding at 50 nM. […] These clones were re-grown, and subjected to another round of FACS sorting for loss of binding to the target antibody. Using the Zymoprep Yeast Plasmid Miniprep kit (Zymo Research), individual ECD clones were isolated and sequenced. Where necessary, mutations were reformatted as single-mutant ECD clones using the Quikchange site directed mutagenesis kit (Agilent).
Individual ECD clones were next screened to determine whether loss of binding was due to a mutation in the epitope, or a mutation that caused misfolding. Mutations that involved cysteine, proline, and stop codons were automatically discarded due to the high likelihood of a misfolding mutation. Remaining ECD clones were then screened for binding to a non-competing, conformationally specific antibody. ECD clones that lost binding to non-competing, conformationally specific antibodies were concluded to contain misfolding mutations, whereas ECD clones that retained equivalent binding as wild type SEZ6 ECD were concluded to be properly folded. Mutations in the ECD clones in the latter group were concluded to be in the epitope. […]
In the case of B1, the Discontinuous result is given as “Yes”.

With B2, the Discontinuous entry is given as “Yes”.

As to B3, the Discontinuous entry is “Yes”.

On to B4, for which the Discontinuous entry is “Yes”.

Turning to B5, the Discontinuous entry is “Yes”.

As to B6, the Discontinuous result is on record as “No”.
